From the RNAGym collection of RNA variant scans (doi:10.1073/pnas.2313332121)

B1: TPR t1 (parent)
chain: GACCAAUCUGCCCUCAGAGCUCGAGAACAUCUUCGGAUGCAGAGGAGGCAGGCUUCGGUGGCGCGAUAGCGCCAACGUCCUCAACCUCCAAUGCAUCCCACCACAUGAUGAUGCCUGAAGAGCCUUGGUUUUUUG

Variants of: B1
Test: polymerase ribozyme fitness, log enrichment relative to wild type (log ratio); higher = more active; in vitro selection for triplet polymerase activity
Procedure, shortened: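 Only genotypes with ≥10 input reads and ≥1 read per output were kept after Illumina sequencing of input and output libraries. These libraries were PCR-built, transcribed mutants of each subunit of a heterodimeric triplet polymerase ribozyme, each put through one triplicate in vitro selection round with frozen incubation at −7 °C, gel excision of extended constructs, streptavidin-bead capture and RT-PCR. Fitness is a logarithmic ratio of genotype enrichment to wild-type enrichment, from inverse-variance-weighted replicate averages, with the logarithm in base 2.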

Row | Variant | polymerase ribozyme fitness (log ratio)
1 | C8G A26G C86G U109C | -5.29
2 | C8A G63U G77C G117C | -4.17
3 | C8A G93A | -0.248
4 | C8G C53U | 0.216
5 | U7G U54C U55G | 0.467
6 | C8G G19A G69U C79U A111G U129C U133A | -1.15
7 | C8A A50U G52A | -2.23
8 | U7C U96C C102A A108U C114U | -5.22
9 | C8A C28A G63U G77C C86A U112C | -6.46
10 | C8A C97A G120C | -3.2
11 | C8A U33A G42U U112A C123A | -6.39
12 | C8A G63A A83C C86U | -0.491
13 | C8A C64G C72U A121G | -6.31
14 | C8G A43C A50U C115U G127U | -4.94
15 | U7G G58C U106A G128A | -0.568
16 | C8G C34A U55A C70G C104G G110A | -7.2
17 | C8A C22U G57C A75U C97U C102G | -6.66
18 | U7G U92A | -2.22
19 | C8G C102U U106C | -0.803
20 | U7G G93C | -0.742
21 | U7C U87C U92G G122A C123U | -1.22
22 | C8G A29U U55G C56A C94U C124A | -1.05
23 | C8A G69C | -1.13
24 | C8A C12G U14C C73U G77C C101A | -1.62

Row | Variant | polymerase ribozyme fitness (log ratio)
25 | U7C G69A | -2.74
26 | C8G G10A A16C A95U G122U | -0.858
27 | C8A C22U C53G G61A U106A A118G | -4.47
28 | U7G G48C C89A | -2.97
29 | C8G G48A G120C U125C | 1.03
30 | U7C G10A C11G G93U | -1.34
31 | C8A C56A C102A A103U | -3.2
32 | C8A A121U | 2.6
33 | C8A G17A C72U U126A | -3.12
34 | U7G A46G C124A | 1.74
35 | U7G C40U A41C G71U G113A | -2.26
36 | C8G G44C C49A C123G | 0.185
37 | U7G C22U C101A C114A A118U A119U | -5.29
38 | U7G C15A G58C | -0.977
39 | C8A G48U C53A C62U C82U U106A A108G | -1.01
40 | U7G G117C G122U | -4.49
41 | C8G G23U A24U A41C G60U C86G C101A G120A | -7.63
42 | C8A C72G U133G | 0.138
43 | C8G C56A U78C G93A C123U | 1.31
44 | C8G A50G G63A U112A G122A | -1.09
45 | U7C G42C U87A | -1.73
46 | C8A C124G | 1.76
47 | U7G C89A U116A G117A | -2.89
48 | C8G C28G C97A U106A C115U U133G | -5.09

Row | Variant | polymerase ribozyme fitness (log ratio)
49 | C8A C79G | -1.65
50 | C8A C79A | -0.182
51 | C8A C101U G117U | -0.423
52 | C8G C124G | 1.92
53 | C8A C53G C56A C70U C97U U112A C124U | -0.44
54 | U7G C49U C80U A111C | -4.73
55 | U7G C20U G60C U133G | -1.91
56 | C8G C115A U130G | 1.67
57 | C8A U130G U132A | -2.74
58 | C8G C13A C85U G135U | -1.16
59 | C8G C15U C70U | -0.473
60 | C8G A18U G45A C79U A100U A103C C114U | -4.29
61 | U7G A16C | -1.37
62 | C8A G122A | 0.24
63 | C8A C22G G61U A121U | -1.38
64 | U7G C53A A91U C101G | -4.34
65 | C8A A27C U33G G36C G42U G110C G113C | -6.47
66 | C8G C13G A16U C49A C70U U129C | -1.75
67 | U7G C8A | 0.287
68 | U7G G42A G63C U81A U109A U130C | -6.25
69 | C8A C12A G39A | -0.403
70 | C8G G35U C123A | -3.92
71 | C8A G39A C79U | 0.0227
72 | U7G C11U C49A C56A G107U C114U | -4.37

Row | Variant | polymerase ribozyme fitness (log ratio)
73 | U7G C88U G93C | -1.33
74 | C8G C73G | 0.0346
75 | C8G C73A | 1.91
76 | C8A G61U G117U A119U C123U | -0.671
77 | U7G A16C U55G C56U A84G | -4.09
78 | C8A A43C C86G C123U U129G | -2.96
79 | C8G C20U G69U C101U | -1.07
80 | C8G C28A C72A | -4.41
81 | C8A C114U U126C | -2.4
82 | C8A A43U | -1.01
83 | C8G C13G U54C | 0.758
84 | C8A C22G G63U U129G | -3.84
85 | U7G C8A C56A C124U U129A | -0.245
86 | U7G A74C G93U G113A | -1.35
87 | C8G C20A A84C C124U | -0.801
88 | C8A G45C A50C G57C G93C | -2.56
89 | C8G C12G G44C U96A | -0.546
90 | C8A C12U C13G G69A C98U | -4.08
91 | C8G A50U | -0.104
92 | U7G G71U C115A | 1.44
93 | C8A C28U G48C G57U G127C | -3.86
94 | C8A C12G C64A C123A | -6.53
95 | U7G G51C U55C | -2.32
96 | U7C G42C C88U C115U U133A | -0.576

Row | Variant | polymerase ribozyme fitness (log ratio)
97 | C8A C11A G51U | -2.89
98 | C8G G45U G63C A83U A91C U112A | -1.6
99 | U7G C40U U54C C73A U106A | 1.14
100 | C8G A41G C53G G93U | -0.406
101 | C8G C11U C124A | 2.24
102 | U7G C101A | -0.172
103 | C8G C20G G44U | -4.75
104 | U7G A46C C97U G120U G127U | 0.436
105 | C8G C12G U55G G61U | 0.571
106 | U7G A46U C82U C102A U112A | -0.759
107 | C8A C101G | -1.63
108 | C8A U9G C85G C89A U126G G127C | -2.22
109 | C8G A90G G113U G117A G127A | -6.12
110 | C8G C11U U21C C34U | -3.99
111 | U7G A41G C53A G61U C79U A90U A111C | -3.04
112 | C8G C79G G117U | -1.37
113 | C8G G47C C85G | -1.92
114 | U7C G45U G110C | -5.16
115 | C8A A16C C40U C72A U92G C123U U130A | -3.93
116 | C8G G39U C123U | 1.42
117 | C8G C79A | -0.929
118 | C8A C31A | -5.54
119 | C8A G48U C53A C82U U106A A108G | -1.56
120 | C8G C22U C53A C101A A121G C124A | -3.25

Row | Variant | polymerase ribozyme fitness (log ratio)
121 | C8G C11G C53U C62U U81G C102A | -4.4
122 | C8A C20U G60A C98U | -0.889
123 | C8G C70U C80A C94G | -5.61
124 | C8G G44U | -0.116
125 | C8G C20A C72U G77A | -1.87
126 | C8A G36U C49G G71U | -1.2
127 | U7G C11G C124U | 1.49
128 | C8A A26U C115U | -5.1
129 | U7G A18U C101U | -1.59
130 | C8G A18C G39C U133G | -2.2
131 | C8A C13G G17C C82U | -4
132 | U7G C22U G42A G47C G60C U87G U92C | -7.02
133 | C8A G17A U54A G71U C94A | -4.99
134 | U7G C31U C62U A100C U106A G113A | -4.43
135 | U7G G69U G122A | 0.793
136 | C8A G71A | 0.22
137 | C8A G51C C73U C94U U130G | -3.59
138 | C8G G36A G44A C70G | -4.2
139 | C8G C20U U32G C56G G113A U125G | -3.85
140 | C8G C56A G77U C88G U92A G113C G122A C123G | -3.34
141 | U7G G117U | -2.24
142 | C8G A46G G107A | -4.69
143 | U7G G63A C86G C94A G113U | -5.43
144 | C8G C62U C99U | -2.93

Row | Variant | polymerase ribozyme fitness (log ratio)
145 | C8G G19A C76A | -3.65
146 | U7G A41C C56U | -0.335
147 | U7G C13U A26G G48A C49U G52A A75C | -3.14
148 | C8G C11G C56A C62G C85U | -4.61
149 | C8A C88A | 0.0973
150 | C8G C20G C34U U112A | -5.8
151 | U7G A18G C62U G120C U125A | -2.15
152 | C8A U14A C101G | -1.85
153 | C8G A46U A91U G117C | -2.28
154 | C8A C70U C88U | -0.306
155 | C8G G35C C89U | -4.98
156 | C8G C11G U96A | -0.26
157 | C8G C20U C49U | -1.11
158 | C8A A37C | 0.0805
159 | C8G A100U U106A U116A | -0.749
160 | C8G C49A U92A C123U | -1.03
161 | U7G G39A C114G | -2.02
162 | U7G A41U | -0.368
163 | U7G A66C G71U | -1.24
164 | C8A A84U | 0.295
165 | C8G A46U G63C | -0.288
166 | C8A C12U A90U G117C | -0.863
167 | C8A U112A C123A | 1.22
